How the values were obtained:
hRNMT WT [1] = target: T1, hRNMT WT (Homo sapiens, UniProt O43148 1-476); test: pull-down
hRNMT 1-185 [2] = target: T2, hRNMT 1-185 (Homo sapiens, UniProt O43148 1-185); test: pull-down
hRNMT 120-476 [3] = target: T3, hRNMT 120-476 (Homo sapiens, UniProt O43148 120-476); test: pull-down
hRNMT 120-476 [4] = target: T3, hRNMT 120-476; test: EMSA
hRNMT WT;RAM 1-90 = hRNMT WT;RAM 1-90 (Homo sapiens;Homo sapiens?, UniProt O43148;Q9BTL3 1-476;1-90, |); test: EMSA
hRNMT WT [5] = target: T1, hRNMT WT; test: EMSA
hRNMT 1-185 [6] = target: T2, hRNMT 1-185; test: EMSA

Measured: binding result

T3 sequence (O43148 120-476): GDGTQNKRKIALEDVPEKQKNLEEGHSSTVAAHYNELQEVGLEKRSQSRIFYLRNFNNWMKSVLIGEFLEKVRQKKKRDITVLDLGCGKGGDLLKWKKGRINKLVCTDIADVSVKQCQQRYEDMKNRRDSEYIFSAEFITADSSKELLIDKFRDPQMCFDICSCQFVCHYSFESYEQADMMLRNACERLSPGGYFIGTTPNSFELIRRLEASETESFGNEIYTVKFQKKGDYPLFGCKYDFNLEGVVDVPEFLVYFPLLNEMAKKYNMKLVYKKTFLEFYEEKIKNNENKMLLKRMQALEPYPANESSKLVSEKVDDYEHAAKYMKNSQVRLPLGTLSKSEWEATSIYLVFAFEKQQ
T2 sequence (O43148 1-185): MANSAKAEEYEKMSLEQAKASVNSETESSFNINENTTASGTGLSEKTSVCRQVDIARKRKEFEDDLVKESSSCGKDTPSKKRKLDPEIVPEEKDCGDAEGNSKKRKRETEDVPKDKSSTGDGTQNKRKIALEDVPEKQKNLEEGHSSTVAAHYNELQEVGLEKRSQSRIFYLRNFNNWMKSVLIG
T1 sequence (O43148 whole entry): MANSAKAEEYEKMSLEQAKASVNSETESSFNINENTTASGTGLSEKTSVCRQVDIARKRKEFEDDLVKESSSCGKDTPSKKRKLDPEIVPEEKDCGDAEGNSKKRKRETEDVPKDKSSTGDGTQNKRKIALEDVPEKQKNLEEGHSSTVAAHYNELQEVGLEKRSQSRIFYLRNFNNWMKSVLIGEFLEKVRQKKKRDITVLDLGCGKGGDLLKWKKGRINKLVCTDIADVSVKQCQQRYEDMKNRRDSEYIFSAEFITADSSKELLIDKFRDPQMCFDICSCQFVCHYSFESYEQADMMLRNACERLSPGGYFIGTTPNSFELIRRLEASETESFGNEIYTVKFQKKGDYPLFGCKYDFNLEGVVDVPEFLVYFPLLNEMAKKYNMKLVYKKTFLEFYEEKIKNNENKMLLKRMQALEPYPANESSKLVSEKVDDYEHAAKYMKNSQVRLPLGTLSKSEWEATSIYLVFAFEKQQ
Chain of hRNMT WT;RAM 1-90 (O43148 whole entry, chain 1 of 2): as the sequence (O43148 whole entry) above
Chain of hRNMT WT;RAM 1-90 (Q9BTL3 1-90, chain 2 of 2): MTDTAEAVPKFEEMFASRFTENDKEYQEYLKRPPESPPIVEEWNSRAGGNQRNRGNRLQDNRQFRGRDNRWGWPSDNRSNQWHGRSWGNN

UGUGGGAGGGGCGGGUGUGGGUGC (structured_RNA) [NRAS rG4]
binds: hRNMT WT [1] | hRNMT 1-185 [2] | hRNMT 120-476 [3]

B1: pGEM RNA (ssRNA)
RNA: GGGCGAAUUGGGCCCGACGUCGCAUGCUCCCGGCCGCCAUGGCGGCCGCGGGAA
binds: hRNMT 120-476 [4] | hRNMT WT;RAM 1-90

B2: pGEM rG4 RNA (structured_RNA)
RNA: GGGCGAAUUGGGCCCGACGUCGCAUGUGUGGGAGGGGGCGGGUGUGGGUGCGAA
binds: hRNMT WT [5] | hRNMT 1-185 [6] | hRNMT 120-476 [4] | hRNMT WT;RAM 1-90
